In patent US20140127211A1 one finds O.D. 450 nM (ELISA, relative binding capacity) data, which are given here for one molecule.

The target of experiment [1] is Notch 1-3 NRR domain swap chimera: C of Notch1; A, B, hd1, hd2 of Notch3 (row 6, unnamed on the sheet) (human). The experiment in a line: ELISA: NRR-Fc protein coated at 1 ug/ml, antibody applied at 5 ug/ml, goat anti-human Fc-HRP, TMB, O.D. 450 nM.
In experiment [2] the target is Notch 1-3 NRR domain swap chimera: B of Notch1; A, C, hd1, hd2 of Notch3 (row 5, unnamed on the sheet) (human). The description is as above.

B1: rat-human chimeric antibody 75 (ch75) (antibody, V domains shown)
VH: QVKLLQSGAALVKPGASVKMSCKASGYAFTDYWVTWVKQSHGKSLEWIGEISPNSGGTNFNEKFKGKATLTVDKSTSTAYMELSRLTSEDSAIYYCTRGEIRYNWFAYWGQGTLVTVSS
VL: NIVMTQSPKSMSISVGDRVTMNCKASQNVGNNIAWYQQKPGQSPKLLIYYASNRYTGVPDRFTGGGYGTDFTLTINSMQAEDAAFYYCQRLYNSPFTFGSGTKLEIK
Consider B1, for which the O.D. 450 nM (ELISA, relative binding capacity) turned out to be 0.8 in experiment [1] and 2.37 in experiment [2].
